Experiment [1] has as its target CT45-IP-HLA-A*02 dextramer (human). Put plainly: flow cytometry, dextramer staining of TCR-mRNA electroporated T cells, gated on CD3+. A general note: In flow cytometry, cells or beads pass a laser one at a time.
Experiment [2] has as its target CT45-IP antigenic peptide (…) in complex with HLA-A*02 presented on cells (peptide-loaded T2 cells; NCIH1703 and A375 tumor cells) (human). Put plainly: cell-based or functional assay.
Experiment [3] deals with T1, CT45 (CT45A1, A2, A3, A5 to A10); CT45-IP peptide on HLA-A*02:01 (human).
T1 peptide: KIFEMLEGV
Kind of experiment: CT45-IP-HLA-A*02 dextramer on T cells with TCR mRNA; TCR found by tetramer sorting; full-length, on cells.

Experiment [4] deals with T1, CT45 (CT45A1, A2, A3, A5 to A10); …. Kind of experiment: luciferase release, 24 h, 1:1; CD8+ T cells with TCR mRNA, T2 cells with titrated peptide; full-length, on cells.
Experiment [5] has as its target T2, similar peptide SP-05-0008, source protein not stated peptide on HLA-A*02:01 (human).
T2 peptide: KILDELEKV
Kind of experiment: killing.

Experiment [6] addresses T3, similar peptide SP-05-0007, source protein not stated peptide on HLA-A*02:01 (human).
T3 peptide: KIFPALCTV
Put plainly: killing.

Experiment [7] deals with T4, CT45-IP alanine variant, position 1 peptide on HLA-A*02:01 (human).
T4 peptide: AIFEMLEGV
Put plainly: killing.

In experiment [8] the target is T5, similar peptide SP-05-0006, source protein not stated peptide on HLA-A*02:01 (human).
T5 peptide: KIAELLENV
Kind of experiment: killing.

Experiment [9] concerns the target T6, CT45-IP alanine variant, position 6 peptide on HLA-A*02:01 (human).
T6 peptide: KIFEMAEGV
Put plainly: killing.

The target of experiment [10] is T7, similar peptide SP-05-0005, source protein not stated peptide on HLA-A*02:01 (human).
T7 peptide: KIEEFLEAV
Put plainly: killing.

For experiment [11], the target named is T8, similar peptide SP-05-0001, source protein not stated peptide on HLA-A*02:01 (human).
T8 peptide: HIMEHLEGV
Kind of experiment: killing.

Experiment [12] addresses T9, CT45-IP alanine variant, position 3 peptide on HLA-A*02:01 (human).
T9 peptide: KIAEMLEGV
Put plainly: killing.

For experiment [13], the target named is T10, similar peptide SP-05-0003, source protein not stated peptide on HLA-A*02:01 (human).
T10 peptide: KVTEMLVNV
Kind of experiment: killing.

Experiment [14] addresses T11, CT45-IP alanine variant, position 4 peptide on HLA-A*02:01 (human).
T11 peptide: KIFAMLEGV
Put plainly: killing.

The target in experiment [15] is T12, similar peptide SP-05-0002, source protein not stated peptide on HLA-A*02:01 (human).
T12 peptide: KIFSGLLKV
Put plainly: killing.

Experiment [16] concerns the target T13, similar peptide SP-05-0004, source protein not stated peptide on HLA-A*02:01 (human).
T13 peptide: KIWEWLVGV
Put plainly: killing.

Experiment [17] has as its target T14, CT45-IP alanine variant, position 8 peptide on HLA-A*02:01 (human).
T14 peptide: KIFEMLEAV
Put plainly: killing.

Experiment [18] addresses T15, similar peptide SP-05-0009, source protein not stated peptide on HLA-A*02:01 (human).
T15 peptide: KIIDLLPKV
Put plainly: killing.

The target in experiment [19] is T16, similar peptide SP-05-0010, source protein not stated peptide on HLA-A*02:01 (human).
T16 peptide: RIFETVNSV
Put plainly: killing.

Experiment [20] deals with T17, CT45-IP alanine variant, position 7 peptide on HLA-A*02:01 (human).
T17 peptide: KIFEMLAGV
Kind of experiment: killing.

B1: TCR-8 (TCR, V domains shown)
Valpha: QKVTQAQTEISVVEKEDVTLDCVYETRDTTYYLFWYKQPPSGELVFLIRRNSFDEQNEISGRYSWNFQKSTSSFNFTITASQVVDSAVYFCALSGRGSGTYKYIFGTGTRLKVLA
Vbeta: GVIQSPRHLIKEKRETATLKCYPIPRHDTVYWYQQGPGQDPQFLISFYEKMQSDKGSIPDRFSAQQFSDYHSELNMSSLELGDSALYFCASSAGTSYNEQFFGPGTRLTVL
In the case of B1, the surface expression, % positive events by CT45-IP-HLA-A2*02 dextramer staining in [1] was determined as 60.7%. In [2], this molecule showed an EC50, half maximal killing capacity (functional avidity; CT45-IP peptide titration on T2 cells, luciferase release) of 6.52 nM. For the same molecule, the dextramer-positive events in experiment [3] came to 60.7%. In addition, in experiment [4], the EC50 of peptide came to 6.52 nM. Further, the binding result in experiment [5] is “no recognition”; in experiment [6], “no recognition”; in experiment [7], “recognises”; in [8], “no recognition”; in [9], “recognises”; in experiment [10] it was “no recognition”. Moreover, the binding result in experiment [11] was “no recognition”; in experiment [12] it was “recognises”; in experiment [13], “no recognition”; in experiment [14], “recognises”; in [15] it was “no recognition”; in experiment [16] it was “no recognition”. Besides, the values for the binding result in experiment [17], in experiment [18] and in [19] were “recognises”, “no recognition” and “no recognition”, respectively.

B2: TCR-14 (TCR, V domains shown)
Valpha: QKITQTQPGMFVQEKEAVTLDCTYDTSDQSYGLFWYKQPSSGEMIFLIYQGSYDEQNATEGRYSLNFQKARKSANLVISASQLGDSAMYFCAINGLPGSARQLTFGSGTQLTVLP
Vbeta: GVAQSPRYKIIEKRQSVAFWCNPISGHATLYWYQQILGQGPKLLIQFQNNGVVDDSQLPKDRFSAERLKGVDSTLKIQPAKLEDSAVYLCASSRFVATGTSPLHFGNGTRLTVT
As for B2, the surface expression, % positive events by CT45-IP-HLA-A2*02 dextramer staining in experiment [1] turned out to be 11.6%. The molecule further had an EC50, half maximal killing capacity (functional avidity; CT45-IP peptide titration on T2 cells, luciferase release) in [2] of 17.7 nM. The dextramer-positive events in experiment [3] worked out at 11.6%. This molecule also yielded an EC50 of peptide in [4] of 17.7 nM. Also, the binding result is recorded as “no recognition” in experiment [5]; “no recognition” in [6]; “no recognition” in experiment [8]; “recognises” in experiment [9]; “no recognition” in experiment [10]; “no recognition” in experiment [11]. Also, the binding result is “recognises” in experiment [20]; “no recognition” in experiment [13]; “no recognition” in [15]; “no recognition” in experiment [16]; “recognises” in experiment [17]; “no recognition” in [18]. For the same molecule, in [19], the binding result is given as “no recognition”.

Values taken from patent US20230057987A1 (published 2023).
